Experiments:
[1] = biological target: FokI endonuclease wild-type (Flavobacterium okeanokoites, UniProt P14870 P14870:2-579); assay: filter; with poly(dI-dC), 1 mM EDTA, 50 mM NaCl, 22 C; values only in figure; conditions: tags: expressed in E. coli RR1 from pRRSfokIR; label: 32P
Experimental: (§1) The filter binding assays were performed in duplicate using *Fok*I or mutant enzymes and the four different synthetic substrates, SEQ ID NO:12, SEQ ID NO:13, hemi-methylated oligonucleotide of SEQ ID NO:12 and hemi-methylated oligonucleotide of SEQ ID NO:13. Nine different concentrations for each of the enzymes were made by serial dilutions ([…], 2000, 667, 222, 74.1, 24.7, 8.23, 2.74 and 0.914 nM). The enzymes were mixed with 40 nM of each labelled substrate along with 50 μg/ml p(dI-dC) and 50 μg/ml BSA in 50 μl of buffer A[10 mM Tris. phosphate (pH 8.0), 7 mM 2-mercaptoethanol, 1 mM EDTA, 50 mM NaCl, and 10% (vol/vol) glycerol]. The samples were incubated at 22° C. for 1 hr and then loaded on to nitrocellulose filters. The filters were washed twice with 0.5 ml of buffer A, dried and counted using the scintillation counter.
(§2) Why does the four amino-acid residue insertions enable the mutant enzymes to cleave hemi-methylated DNA and not the larger inserts? The four codon insertions could increase the affinity of the mutants for the hemi-methylated DNA. The binding affinities of wild-type enzyme and both four codon insertion mutants were compared by filter binding assays using the synthetic oligonucleotide substrates (FIGS. 9A, 9B and 9C). The binding affinities were measured in the presence of non-specific DNA, poly dI-dC.

[2] = biological target: FokI TAEL (+4) insertion mutant (Flavobacterium okeanokoites, UniProt P14870 P14870:2-579, insertion of TAEL after QLV in linker (linker SEQ 21)); assay: filter; similar to wild-type; conditions: label: 32P
Chain of FokI TAEL (+4) insertion mutant (P14870 other isoform, or with tags, fused parts or gaps with the stated changes): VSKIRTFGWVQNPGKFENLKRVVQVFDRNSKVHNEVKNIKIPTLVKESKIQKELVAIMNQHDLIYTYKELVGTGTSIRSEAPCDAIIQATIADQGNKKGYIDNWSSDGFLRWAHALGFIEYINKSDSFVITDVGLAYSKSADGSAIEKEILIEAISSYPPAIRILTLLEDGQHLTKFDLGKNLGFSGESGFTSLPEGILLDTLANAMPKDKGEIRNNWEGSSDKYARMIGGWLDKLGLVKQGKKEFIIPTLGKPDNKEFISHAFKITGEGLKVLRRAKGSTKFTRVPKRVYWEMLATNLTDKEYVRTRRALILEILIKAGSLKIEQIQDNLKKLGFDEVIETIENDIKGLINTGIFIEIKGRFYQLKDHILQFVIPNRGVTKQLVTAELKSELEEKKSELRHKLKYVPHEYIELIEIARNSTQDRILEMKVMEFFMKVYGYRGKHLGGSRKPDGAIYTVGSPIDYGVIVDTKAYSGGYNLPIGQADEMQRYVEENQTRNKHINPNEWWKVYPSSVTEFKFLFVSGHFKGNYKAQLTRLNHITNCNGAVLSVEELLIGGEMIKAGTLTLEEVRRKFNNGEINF
Experimental: as §1, §2

Chain of FokI endonuclease wild-type (P14870 2-579, one chain of several): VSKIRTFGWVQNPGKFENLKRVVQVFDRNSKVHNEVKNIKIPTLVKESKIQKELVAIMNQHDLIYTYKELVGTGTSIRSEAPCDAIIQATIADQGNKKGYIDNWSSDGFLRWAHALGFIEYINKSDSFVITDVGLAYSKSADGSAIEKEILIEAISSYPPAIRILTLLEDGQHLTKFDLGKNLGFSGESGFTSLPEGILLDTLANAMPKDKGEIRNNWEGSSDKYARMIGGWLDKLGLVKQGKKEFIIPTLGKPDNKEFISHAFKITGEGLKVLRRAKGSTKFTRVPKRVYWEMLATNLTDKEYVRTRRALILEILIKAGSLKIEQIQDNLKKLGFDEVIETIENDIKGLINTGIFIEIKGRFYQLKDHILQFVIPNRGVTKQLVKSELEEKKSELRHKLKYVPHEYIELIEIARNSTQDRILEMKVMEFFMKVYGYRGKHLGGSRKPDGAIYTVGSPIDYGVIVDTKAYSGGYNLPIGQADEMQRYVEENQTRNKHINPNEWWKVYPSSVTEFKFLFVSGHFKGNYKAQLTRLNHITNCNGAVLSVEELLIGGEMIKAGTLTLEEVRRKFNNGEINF

B1: unmethylated FokI substrate (dsDNA)
DNA 1: CTAGAGTCAGAATTCGAAGACTTGCCGGATGATCTGCAGGCCAGCTGTGGCGTCTAAATTGA
DNA 2: AGCTTCAATTTAGACGCCACAGCTGGCCTGCAGATCATCCGGCAAGTCTTCGAATTCTGACT
binding result [1]: binds | binding result [2]: binds
